Experiments:
[1] = molecular target: GST-tagged ChYtm1 (Chaetomium thermophilum) (UniProt G0SFB5); assay: BLI
[2] = molecular target: T1, 6xHis-tagged ChYtm1 (Ytm1 from Chaetomium thermophilum) (Chaetomium thermophilum, UniProt G0SFB5 1-495); assay: ITC
T1 sequence (looked up): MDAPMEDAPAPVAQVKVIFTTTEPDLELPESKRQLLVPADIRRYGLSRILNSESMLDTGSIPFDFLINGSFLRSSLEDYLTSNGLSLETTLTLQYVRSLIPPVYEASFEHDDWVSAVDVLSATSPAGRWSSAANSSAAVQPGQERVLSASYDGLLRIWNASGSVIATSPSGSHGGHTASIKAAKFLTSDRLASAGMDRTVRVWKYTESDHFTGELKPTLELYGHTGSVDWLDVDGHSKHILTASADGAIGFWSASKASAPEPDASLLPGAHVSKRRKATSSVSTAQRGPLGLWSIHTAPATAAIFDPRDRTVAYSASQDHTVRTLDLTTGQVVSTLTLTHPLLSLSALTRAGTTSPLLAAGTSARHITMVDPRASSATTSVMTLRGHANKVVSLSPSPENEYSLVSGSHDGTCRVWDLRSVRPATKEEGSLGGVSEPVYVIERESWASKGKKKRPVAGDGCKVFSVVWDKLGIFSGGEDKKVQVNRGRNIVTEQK

“6xHis-ChErb1[R486E], full-length (from UniProt G0SCK6 1-801) (natural protein)” showed a fold loss of affinity (KD) against the ChErb1-ChYtm1 interaction [1] of 100 fold.

“ChErb1 R486A mutant (from UniProt G0SCK6 1-801) (natural protein)” was tested, and the Kd [1] was 7 nM.

B1: 6xHis-ChErb1_(432–801) (β-propeller domain of ChErb1) (domain or fragment, Chaetomium thermophilum, UniProt G0SCK6 432-801, looked up)
chain: LPSPDELKPFPTVQQTIFRGHEGRVRSVAIDPTGVALATGGDDGTVRVWELLTGRQVWSVKLNGDEAVNTVRWRPTKDTFILAAAAGEDIFLMIPTHPSVTPALDQASRDILNAGFGHATNGKQQANLPPGKEPPGKWARPGTRLEDEGVLLRITVRSTIKAISWHRRGDHFATVSPSGQRSSVAIHTLSKHLTQIPFRKLNGLAQTASFHPLRPLFFVATQRSIRCYDLQKLELVKIVQPGAKWISSFDVHPGGDNLVVGSYDKRLLWHDLDLSNRPYKTMRFHTEAIRAVRFHKGGLPLFADASDDGSLQIFHGKVPNDQLENPTIVPVKMLKGHKVVNKLGVLDIDWHPREPWCVSAGADGTARLWM
Work on B1 yielded a Kd [2] of ~9 nM.
